The text below walks through data of article PMC10439913.

Assay [1] deals with IGFBP3:ALS complex, preformed on immobilized His-tagged ALS (UniProt P35858). The experiment in a line: radioligand binding; saturation binding of 0-5 nM [125I]-monoiodotyrosyl-IGF2 to IGFBP3 (no His-tag, 25 ng/well) preformed in complex with His-tagged ALS (10 ng/well) immobilized via neutravidin and Ni-NTA iBodies; 16 h at 5 °C, 100 mM HEPES pH 7.6, 100 mM NaCl, 1% BSA.
In assay [2] the target is mannose-6-phosphate/IGF2 receptor (M6P/IGF2R), native in R- cells (mouse (endogenous in R- cells)) (UniProt Q07113). Kind of assay: radioligand binding; saturation binding of 0-5 nM [125I]-monoiodotyrosyl-Tyr2-IGF2 to 14,000 R- cells per well; 16 h at 5 °C, 100 mM HEPES pH 7.6, 100 mM NaCl, 1% BSA; nonspecific binding with 10 µM unlabeled IGF2; one-site fit.
Chain of mannose-6-phosphate/IGF2 receptor (M6P/IGF2R), native in R- cells (mouse (endogenous in R- cells)) (Q07113 36-2483): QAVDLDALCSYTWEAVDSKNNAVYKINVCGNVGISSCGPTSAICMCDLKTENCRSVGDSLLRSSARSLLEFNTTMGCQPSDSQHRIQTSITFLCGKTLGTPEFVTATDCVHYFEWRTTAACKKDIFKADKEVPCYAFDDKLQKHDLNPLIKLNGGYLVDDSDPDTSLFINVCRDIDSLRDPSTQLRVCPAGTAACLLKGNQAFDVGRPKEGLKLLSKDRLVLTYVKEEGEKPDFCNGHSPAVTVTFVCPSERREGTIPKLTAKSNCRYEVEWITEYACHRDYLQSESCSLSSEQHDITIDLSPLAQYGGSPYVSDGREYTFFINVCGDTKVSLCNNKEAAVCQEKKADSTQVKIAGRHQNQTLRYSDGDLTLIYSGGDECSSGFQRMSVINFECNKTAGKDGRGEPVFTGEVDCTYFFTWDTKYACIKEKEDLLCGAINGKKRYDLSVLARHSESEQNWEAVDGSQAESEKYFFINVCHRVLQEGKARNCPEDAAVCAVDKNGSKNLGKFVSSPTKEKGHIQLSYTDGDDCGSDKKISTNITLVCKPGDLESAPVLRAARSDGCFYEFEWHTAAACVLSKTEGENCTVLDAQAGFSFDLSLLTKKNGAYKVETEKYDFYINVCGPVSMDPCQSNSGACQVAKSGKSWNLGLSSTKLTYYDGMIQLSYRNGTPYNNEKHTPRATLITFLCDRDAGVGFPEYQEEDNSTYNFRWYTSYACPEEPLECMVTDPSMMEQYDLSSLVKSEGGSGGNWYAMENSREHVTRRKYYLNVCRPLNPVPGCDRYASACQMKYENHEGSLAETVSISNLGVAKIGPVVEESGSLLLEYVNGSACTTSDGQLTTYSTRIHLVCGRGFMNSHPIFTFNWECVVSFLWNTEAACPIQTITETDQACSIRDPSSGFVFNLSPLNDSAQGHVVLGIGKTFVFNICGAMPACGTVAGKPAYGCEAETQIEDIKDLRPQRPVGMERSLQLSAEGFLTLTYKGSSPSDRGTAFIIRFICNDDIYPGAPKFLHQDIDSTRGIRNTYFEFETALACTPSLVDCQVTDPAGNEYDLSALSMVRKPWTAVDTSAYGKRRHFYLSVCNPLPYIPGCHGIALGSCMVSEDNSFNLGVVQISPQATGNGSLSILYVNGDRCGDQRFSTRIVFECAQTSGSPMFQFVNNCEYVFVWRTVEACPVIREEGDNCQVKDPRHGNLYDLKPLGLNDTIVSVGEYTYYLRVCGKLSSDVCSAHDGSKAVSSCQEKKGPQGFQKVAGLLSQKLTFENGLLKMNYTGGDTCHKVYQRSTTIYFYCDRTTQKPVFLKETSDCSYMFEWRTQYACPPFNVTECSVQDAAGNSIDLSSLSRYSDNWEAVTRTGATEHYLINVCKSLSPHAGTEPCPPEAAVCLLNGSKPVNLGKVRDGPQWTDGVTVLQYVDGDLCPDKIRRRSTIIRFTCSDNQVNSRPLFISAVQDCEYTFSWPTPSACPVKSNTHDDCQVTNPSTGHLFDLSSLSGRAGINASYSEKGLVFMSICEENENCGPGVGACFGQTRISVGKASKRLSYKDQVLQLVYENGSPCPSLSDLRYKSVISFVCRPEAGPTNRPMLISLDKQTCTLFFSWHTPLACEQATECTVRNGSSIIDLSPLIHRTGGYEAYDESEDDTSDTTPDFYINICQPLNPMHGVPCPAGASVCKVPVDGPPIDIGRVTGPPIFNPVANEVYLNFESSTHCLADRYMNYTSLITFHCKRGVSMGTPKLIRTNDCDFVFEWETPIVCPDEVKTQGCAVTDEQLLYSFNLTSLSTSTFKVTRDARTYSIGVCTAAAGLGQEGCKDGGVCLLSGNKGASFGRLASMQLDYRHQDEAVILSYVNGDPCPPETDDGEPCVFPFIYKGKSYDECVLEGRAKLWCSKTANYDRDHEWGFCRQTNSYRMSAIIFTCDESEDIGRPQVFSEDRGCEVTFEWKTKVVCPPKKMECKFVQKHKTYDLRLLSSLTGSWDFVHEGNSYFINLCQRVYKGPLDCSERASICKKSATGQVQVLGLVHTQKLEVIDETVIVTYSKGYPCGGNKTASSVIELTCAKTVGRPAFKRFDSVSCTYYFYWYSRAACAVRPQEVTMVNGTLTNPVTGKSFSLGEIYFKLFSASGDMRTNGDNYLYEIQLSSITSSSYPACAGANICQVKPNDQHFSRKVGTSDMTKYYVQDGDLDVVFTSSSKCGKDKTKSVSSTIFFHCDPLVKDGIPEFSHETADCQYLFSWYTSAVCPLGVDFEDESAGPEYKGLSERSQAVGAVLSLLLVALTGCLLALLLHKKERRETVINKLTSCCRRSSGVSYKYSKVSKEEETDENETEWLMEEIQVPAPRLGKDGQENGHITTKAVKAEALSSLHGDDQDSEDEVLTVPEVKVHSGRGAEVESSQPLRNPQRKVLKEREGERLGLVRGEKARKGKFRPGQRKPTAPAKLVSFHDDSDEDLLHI
The target of assay [3] is His-tagged IGFBP3 (UniProt P17936). The experiment in a line: radioligand binding; saturation binding of 0-5 nM [125I]-monoiodotyrosyl-IGF2 to His-tagged IGFBP3 (25 ng/well) immobilized via neutravidin and Ni-NTA iBodies; 16 h at 5 °C, 100 mM HEPES pH 7.6, 100 mM NaCl, 1% BSA.
Chain of His-tagged IGFBP3 (P17936 28-291): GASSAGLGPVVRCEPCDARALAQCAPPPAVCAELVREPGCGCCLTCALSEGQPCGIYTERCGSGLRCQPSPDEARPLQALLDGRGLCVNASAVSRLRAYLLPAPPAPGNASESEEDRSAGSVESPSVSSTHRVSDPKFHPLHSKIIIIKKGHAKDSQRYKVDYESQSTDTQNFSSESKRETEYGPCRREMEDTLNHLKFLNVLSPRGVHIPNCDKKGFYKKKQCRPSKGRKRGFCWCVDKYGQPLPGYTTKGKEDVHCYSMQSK
The target in assay [4] is Domain-11 of human M6P/IGF2R (D11), C-terminally His-tagged (human) (UniProt P11717). Kind of assay: radioligand binding; competition of cold ligand with [125I]-monoiodotyrosyl-Tyr2-IGF2 for immobilized D11; Kd of the tracer 2 nM.
The target of assay [5] is human insulin receptor isoform B (IR-B) in transfected mouse fibroblasts (human) (UniProt P06213). The experiment in a line: radioligand binding; competition of cold ligand with [125I]-monoiodotyrosyl-TyrA14-insulin on mouse fibroblasts transfected with human IR-B; Kd by one-site fit, Kd of the tracer 0.3 nM.
In assay [6] the target is native M6P/IGF2R in R- cells (mouse embryonic fibroblasts) (mouse (endogenous in R- cells)) (UniProt Q07113). Kind of assay: radioligand binding; competition of cold ligand (10^-12-10^-6 M) with [125I]-monoiodotyrosyl-Tyr2-IGF2 on R- cells; 16 h at 5 °C, 100 mM HEPES pH 7.6, 100 mM NaCl, 1 mM EDTA, 1% BSA; Kd of the tracer 8.2 nM.
Chain of native M6P/IGF2R in R- cells (mouse embryonic fibroblasts) (mouse (endogenous in R- cells)) (Q07113 36-2483): as the sequence (Q07113 36-2483) above
The target in assay [7] is human IGF1 receptor in transfected mouse fibroblasts (R+39 cells) (human) (UniProt P08069). Kind of assay: radioligand binding; competition of cold ligand with [125I]-iodotyrosyl-IGF1 on R+39 cells (mouse fibroblasts with human IGF-1R); Kd by one-site fit, Kd of the tracer 0.2 nM.
For assay [8], the target named is human insulin receptor isoform A (IR-A) in human IM-9 lymphocytes (human) (UniProt P06213). The experiment in a line: radioligand binding; competition of cold ligand with [125I]-monoiodotyrosyl-TyrA14-insulin on human IM-9 lymphocytes; Kd by one-site fit, Kd of the tracer 0.3 nM.
Assay [9] has as its target IGFBP3:ALS complex, preformed on immobilized His-tagged ALS (UniProt P35858). The experiment in a line: radioligand binding; competition of cold ligand (10^-12-10^-6 M) with [125I]-monoiodotyrosyl-Tyr2-IGF2 for the IGFBP3:ALS complex immobilized through the His-tag of ALS; 16 h at 5 °C, 100 mM HEPES pH 7.6, 100 mM NaCl, 1% BSA; Kd of the tracer 5.9 nM.
Assay [10] deals with His-tagged IGFBP3 (UniProt P17936). Kind of assay: radioligand binding; competition of cold ligand (10^-12-10^-6 M) with [125I]-monoiodotyrosyl-Tyr2-IGF2 for His-tagged IGFBP3 immobilized on a 96-well plate via neutravidin and Ni-NTA iBodies; 16 h at 5 °C, 100 mM HEPES pH 7.6, 100 mM NaCl, 1% BSA.
Assay [11] has as its target IGF1 receptor (IGF1R) (human) (UniProt P08069). Kind of assay: radioligand binding; competition of cold ligand with [125I]-iodotyrosyl-IGF1 for human IGF-1R on R+39 mouse fibroblasts; one-site fit; affinity relative to IGF1.
For assay [12], the target named is insulin receptor isoform B (IR-B) (human) (UniProt P06213). The experiment in a line: radioligand binding; competition of cold ligand with [125I]-monoiodotyrosyl-TyrA14-insulin for human IR-B on transfected mouse fibroblasts; one-site fit; affinity relative to human insulin.
The target in assay [13] is His-tagged IGFBP3 (UniProt P17936). Kind of assay: radioligand binding; competition of cold ligand (10^-12-10^-6 M) with [125I]-monoiodotyrosyl-Tyr2-IGF2 (43,000 cpm) for His-tagged IGFBP3 immobilized via neutravidin and Ni-NTA iBodies; 16 h at 5 °C, HEPES pH 7.6; affinity relative to IGF2.
Assay [14] deals with insulin receptor isoform A (IR-A) (human) (UniProt P06213). Kind of assay: radioligand binding; competition of cold ligand with [125I]-monoiodotyrosyl-TyrA14-insulin for human IR-A on whole IM-9 lymphocytes; one-site fit; affinity relative to human insulin.
The target of assay [15] is mannose-6-phosphate/IGF2 receptor (M6P/IGF2R), native in R- cells (mouse (endogenous in R- cells)) (UniProt Q07113). The experiment in a line: radioligand binding; competition of cold ligand (10^-12-10^-6 M) with [125I]-monoiodotyrosyl-Tyr2-IGF2 (43,000 cpm) for M6P/IGF2R on R- cells; 16 h at 5 °C, 100 mM HEPES pH 7.6, 100 mM NaCl, 1% BSA; affinity relative to IGF2.
Assay [16] deals with IGFBP3:ALS complex, preformed on immobilized His-tagged ALS (UniProt P35858). Kind of assay: radioligand binding; competition of cold ligand (10^-12-10^-6 M) with [125I]-monoiodotyrosyl-Tyr2-IGF2 (43,000 cpm) for the IGFBP3:ALS complex immobilized through the His-tag of ALS; 16 h at 5 °C, HEPES pH 7.6; affinity relative to IGF2.
Assay [17] addresses Domain-11 of human M6P/IGF2R (D11) (human) (UniProt P11717). The experiment in a line: radioligand binding; competition of cold ligand with [125I]-monoiodotyrosyl-Tyr2-IGF2 for immobilized D11 (as in ref. 33); affinity relative to IGF2.
Assay [18] addresses His-tagged IGFBP3 (UniProt P17936). Kind of assay: radioligand binding; saturation binding of 0-5 nM [125I]-monoiodotyrosyl-Tyr2-IGF2 to His-tagged IGFBP3 immobilized on a 96-well plate via neutravidin and Ni-NTA iBodies; 16 h at 5 °C, 100 mM HEPES pH 7.6, 100 mM NaCl, 1% BSA; nonspecific binding with 10 µM unlabeled IGF2.

Chain of IGFBP3:ALS complex, preformed on immobilized His-tagged ALS (P35858 28-605, chain 1 of 2): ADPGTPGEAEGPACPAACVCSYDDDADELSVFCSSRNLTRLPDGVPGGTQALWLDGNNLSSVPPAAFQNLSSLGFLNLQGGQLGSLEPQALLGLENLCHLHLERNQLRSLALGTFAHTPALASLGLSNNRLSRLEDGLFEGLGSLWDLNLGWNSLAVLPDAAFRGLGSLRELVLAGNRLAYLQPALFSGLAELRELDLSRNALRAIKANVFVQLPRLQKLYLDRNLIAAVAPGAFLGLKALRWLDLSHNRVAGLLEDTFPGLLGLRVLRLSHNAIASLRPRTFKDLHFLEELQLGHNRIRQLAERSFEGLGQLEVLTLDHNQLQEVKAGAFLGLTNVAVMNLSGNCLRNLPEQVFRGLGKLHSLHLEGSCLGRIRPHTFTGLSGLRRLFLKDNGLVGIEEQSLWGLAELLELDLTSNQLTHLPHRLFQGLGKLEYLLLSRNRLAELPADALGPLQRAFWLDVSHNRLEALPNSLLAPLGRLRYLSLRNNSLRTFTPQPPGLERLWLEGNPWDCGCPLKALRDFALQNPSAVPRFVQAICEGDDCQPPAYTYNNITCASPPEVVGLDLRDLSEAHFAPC
Chain of IGFBP3:ALS complex, preformed on immobilized His-tagged ALS (P17936 28-291, chain 2 of 2, further chain): as the sequence (P17936 28-291) above
Chain of Domain-11 of human M6P/IGF2R (D11) (human) (P11717 1514-1648): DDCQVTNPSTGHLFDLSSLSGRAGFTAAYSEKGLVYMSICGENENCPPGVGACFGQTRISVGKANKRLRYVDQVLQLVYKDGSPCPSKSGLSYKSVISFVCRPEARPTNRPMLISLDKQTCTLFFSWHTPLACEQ

The term Kd denotes the concentration at which binding is half-saturated. For the substance “[^125I]-monoiodotyrosyl-Tyr2-IGF2 (ligand)”, the Kd was determined as 5.9 nM in [1], 8.2 nM in [2] and 0.56 nM in the assay with His-tagged IGFBP3 [3].

Consider “pro-IGF2(156), non-glycosylated (from UniProt P01344 25-180) (ligand)”, for which, in assay [4], the Kd was found to be 2.31 nM.

In [4], “Insulin-like Growth Factor-2 (IGF2), native mature 67-amino-acid protein (from UniProt P01344 25-91) (ligand)” registered a Kd of 1.29 nM. This Kd lies about 1.8-fold lower than the previous one.

With big-IGF2(87), non-glycosylated (ligand), the Kd stood at 9.47 nM in [5]; 1.77 nM in assay [4]; 0.56 nM in assay [6]; 1.6 nM in assay [7]; 3.82 nM in [8]; 1.63 nM in [9]. In the assay with His-tagged IGFBP3 [10], this substance had a Kd of 0.29 nM.

big-IGF2(87) (ligand) displayed a relative binding affinity (% of IGF1) in assay [11] of 14.8%. Moreover, the relative binding affinity (% of human insulin) turned out to be 2.7% in assay [12] and 7.1% in [14]. The relative binding affinity (% of IGF2) with His-tagged IGFBP3 [13] turned out to be 70%; in [15] it was 227%; in assay [16] it was 58%; in assay [17], 73%.

In turn, big-IGF2(104) (ligand) displayed a relative binding affinity (% of IGF1) in [11] of 9.7%. Also, the relative binding affinity (% of human insulin) is 2.9% in assay [12] and 9.8% in assay [14]. Besides, the relative binding affinity (% of IGF2) with His-tagged IGFBP3 [13] came out at 146%; in [15], 887%; in [16], 17%; in assay [17], 698%.

In the case of “big-IGF2(104), non-glycosylated (ligand)”, the equilibrium dissociation constant (Kd) amounted to 8.83 nM in [5]; 0.19 nM in assay [4]; 0.14 nM in assay [6]; 2.48 nM in assay [7]; 2.75 nM in assay [8]; 5.58 nM in assay [9]. In the assay with His-tagged IGFBP3 [10], this substance gave a Kd of 0.14 nM.

For the substance “[125I]-monoiodotyrosyl-Tyr2-IGF2 (ligand)”, in the assay with His-tagged IGFBP3 [18], the Kd amounted to 0.59 nM. That is a sub-nanomolar value.
